Test results from US20140154248A1.
Like-named read-outs stand apart in the source and are kept apart here.

How the values were obtained:
Test in all cases: cell-based or functional assay
transferrin receptor = transferrin receptor (UniProt P02786)
human mesothelin (human) [1] = biological target: human mesothelin (human) (UniProt Q13421)
human mesothelin (human) [2] = biological target: human mesothelin (human) (UniProt Q13421); remark: listed apart in the source

Sequence of UniProt Q13421 (Q13421 other isoform, or with tags, fused parts or gaps): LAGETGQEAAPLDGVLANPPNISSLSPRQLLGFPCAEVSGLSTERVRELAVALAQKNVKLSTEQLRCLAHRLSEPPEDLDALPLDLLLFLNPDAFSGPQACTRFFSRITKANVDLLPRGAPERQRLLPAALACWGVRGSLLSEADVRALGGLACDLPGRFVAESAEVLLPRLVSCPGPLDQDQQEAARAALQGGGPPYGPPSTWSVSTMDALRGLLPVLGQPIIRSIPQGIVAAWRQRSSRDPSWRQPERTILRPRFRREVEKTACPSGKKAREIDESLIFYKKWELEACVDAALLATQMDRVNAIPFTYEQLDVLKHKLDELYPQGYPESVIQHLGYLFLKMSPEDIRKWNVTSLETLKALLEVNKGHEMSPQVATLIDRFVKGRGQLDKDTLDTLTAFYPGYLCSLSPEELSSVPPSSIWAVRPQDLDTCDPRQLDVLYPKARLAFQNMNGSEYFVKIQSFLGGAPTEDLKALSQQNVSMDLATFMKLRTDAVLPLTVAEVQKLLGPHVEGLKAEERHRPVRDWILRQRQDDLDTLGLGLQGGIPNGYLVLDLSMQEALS
Sequence of UniProt P02786 (P02786 whole entry): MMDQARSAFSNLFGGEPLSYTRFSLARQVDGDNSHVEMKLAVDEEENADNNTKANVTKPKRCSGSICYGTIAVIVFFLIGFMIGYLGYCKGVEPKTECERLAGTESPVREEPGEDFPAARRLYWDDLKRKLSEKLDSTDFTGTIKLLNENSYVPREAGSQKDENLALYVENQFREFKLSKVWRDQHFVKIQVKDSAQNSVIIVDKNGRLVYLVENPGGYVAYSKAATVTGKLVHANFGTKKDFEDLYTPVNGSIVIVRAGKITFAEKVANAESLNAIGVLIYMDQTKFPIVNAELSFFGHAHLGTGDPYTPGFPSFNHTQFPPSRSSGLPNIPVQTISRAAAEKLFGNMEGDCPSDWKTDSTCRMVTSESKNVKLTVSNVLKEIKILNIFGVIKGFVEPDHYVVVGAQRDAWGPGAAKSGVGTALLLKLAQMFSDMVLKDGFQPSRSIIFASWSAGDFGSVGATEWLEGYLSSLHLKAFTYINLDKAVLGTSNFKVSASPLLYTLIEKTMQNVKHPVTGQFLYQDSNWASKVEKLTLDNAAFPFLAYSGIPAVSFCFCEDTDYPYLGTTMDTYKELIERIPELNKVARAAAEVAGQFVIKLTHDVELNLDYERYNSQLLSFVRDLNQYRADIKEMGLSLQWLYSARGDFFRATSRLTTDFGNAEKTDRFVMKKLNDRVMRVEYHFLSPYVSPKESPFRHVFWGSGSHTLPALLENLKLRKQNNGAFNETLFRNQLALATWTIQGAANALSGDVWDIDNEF

Substance | reduction of viability of patient cells NCI-M-02 and NCI-M-03 (crystal violet) (transferrin receptor) | decrease in viability of patient cells NCI-M-02 and NCI-M-03 (crystal violet) (human mesothelin (human) [1]) | EC50 (ng/ml), cytotoxicity WST-8, A431/K5 cells (human mesothelin (human) [2]) | EC50 (ng/ml), cytotoxicity WST-8, A1847 cells (human mesothelin (human) [2]) | EC50 (ng/ml), cytotoxicity WST-8, HAY cells (human mesothelin (human) [2]) | EC50 (ng/ml), cytotoxicity WST-8, KB31 cells (human mesothelin (human) [2]) | EC50 (ng/ml), cytotoxicity WST-8, L55 cells (human mesothelin (human) [2]) | EC50 (ng/ml), cytotoxicity WST-8, M30 cells (human mesothelin (human) [2]) | EC50 (ng/ml), cytotoxicity WST-8, OVACR-8 cells (human mesothelin (human) [2]) | decrease in viability of patient cells NCI-M-02 and NCI-M-03 (crystal violet) (human mesothelin (human) [2]) | decrease in viability of patient cells NCI-M-16 and NCI-M-19 (crystal violet) (human mesothelin (human) [2])
HB21 (anti-transferrin receptor/PE38) | 90% | – | – | – | – | – | – | – | – | – | –
SS1P (SS1 (dsFv)-PE38) (from UniProt P11439 278-638) | – | > 60% | 0.17 ng/mL | 4.59 ng/mL | 4.79 ng/mL | 0.47 ng/mL | 5.32 ng/mL | 2.56 ng/mL | 1.4 ng/mL | > 65% | > 75%
